Values joined by “and” are separate entries in the source; they are usually repeats but may differ in a detail not shown here. Equal values may be shown once.
Key:
[1] = molecular target: truncated SARS-2 E protein corresponding to residues 8–65 with N-terminal 6-His tag (6H-E-TR) (SARS-CoV-2) (UniProt P0DTC4); assay: AUC; sedimentation velocity, His-E-TR at DPR 25 in 5 mM C14SB micelles, 50 mM Tris-HCl pH 7.3, 100 mM NaCl, 29.4% D2O, 20 °C, 50,000 rpm
[2] = molecular target: truncated SARS-2 E protein corresponding to residues 8–65 with N-terminal 6-His tag (6H-E-TR) (SARS-CoV-2) (UniProt P0DTC4); assay: AUC; sedimentation velocity, His-E-TR at DPR 70 in 5 mM C14SB micelles, 50 mM Tris-HCl pH 7.3, 100 mM NaCl, 29.4% D2O, 20 °C, 50,000 rpm
[3] = molecular target: full-length SARS-2 E protein (E-FL) (SARS-CoV-2) (UniProt P0DTC4); assay: AUC; sedimentation velocity, E-FL at DPR 125 in 5 mM C14SB micelles, 50 mM Tris-HCl pH 7.3, 100 mM NaCl, 29.4% D2O, 20 °C, 50,000 rpm

With “truncated SARS-2 E protein corresponding to residues 8–65 with N-terminal 6-His tag (6H-E-TR) (from UniProt P0DTC4 8-65) (domain or fragment)” the stoichiometry N [1] was 3 and the stoichiometry N [2] was 2.56.

For “full-length SARS-2 E protein (E-FL) (from UniProt P0DTC4 1-75) (natural protein)”, the stoichiometry N [3] was 2 and 4.6.

— article PMC10420310, “The Complex Proteolipidic Behavior of the SARS-CoV-2 Envelope Protein Channel: Weak Selectivity and Heterogeneous Oligomerization” (International Journal of Molecular Sciences, 2023)
